# Source: US20110123544A1 (published 2011)
# T1: recombinant human interleukin 12 (p40/p35 heterodimer) (human, UniProt P29460 23-328; P29459 23-219)
# T1 chain 1: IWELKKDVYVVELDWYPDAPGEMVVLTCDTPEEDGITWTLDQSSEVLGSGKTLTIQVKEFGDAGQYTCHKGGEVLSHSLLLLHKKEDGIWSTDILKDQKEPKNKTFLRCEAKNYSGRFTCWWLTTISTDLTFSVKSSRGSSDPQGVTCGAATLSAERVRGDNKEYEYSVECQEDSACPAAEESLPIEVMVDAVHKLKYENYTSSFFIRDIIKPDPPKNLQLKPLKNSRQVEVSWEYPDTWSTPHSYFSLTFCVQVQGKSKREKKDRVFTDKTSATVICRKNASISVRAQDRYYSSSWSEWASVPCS
# T1 chain 2: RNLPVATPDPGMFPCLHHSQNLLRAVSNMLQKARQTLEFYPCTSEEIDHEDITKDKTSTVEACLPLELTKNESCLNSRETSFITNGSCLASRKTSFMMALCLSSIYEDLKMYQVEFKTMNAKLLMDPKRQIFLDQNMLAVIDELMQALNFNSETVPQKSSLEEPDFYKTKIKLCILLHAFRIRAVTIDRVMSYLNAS
# Molecular target: T1, recombinant human interleukin 12 …
# Experiment: BIAcore
row,koff,Binder
1,0.000216 s⁻¹,FTFWSYGMH [Y61 H30 W]
2,0.000399 s⁻¹,FTFVSYGMH [Y61 H30 V]
3,0.000334 s⁻¹,FTFSIYGMH [Y61 H31 I]
4,0.0016 s⁻¹,FTFSSYPMH [Y61 H33 P]
5,0.000233 s⁻¹,FTFGSYGMH [Y61 H30 G]
6,0.000273 s⁻¹,FTFSSYAMH [Y61 H33 A]
7,0.000308 s⁻¹,FTFSSYNMH [Y61 H33 N]
8,0.00032 s⁻¹,FTFTSYGMH [Y61 H30 T]
9,0.000207 s⁻¹,FTFISYGMH [Y61 H30 I]

# Molecular target: T1, recombinant human interleukin 12 …
# Experiment: BIAcore
# Remark: another data set of the same source
row,koff,Binder
1,0.000344 s⁻¹,NIRYDGSNKYYADSVKG [Y61 H50 N]
2,0.000435 s⁻¹,FIRYDVSNKYYADSVKG [Y61 H54 V]
3,0.000611 s⁻¹,FIRYYGSNKYYADSVKG [Y61 H53 Y]
4,0.000347 s⁻¹,EIRYDGSNKYYADSVKG [Y61 H50 E]
5,0.000205 s⁻¹,TIRYDGSNKYYADSVKG [Y61 H50 T]
6,0.000612 s⁻¹,KIRYDGSNKYYADSVKG [Y61 H50 K]
7,0.000407 s⁻¹,FIRYDKSNKYYADSVKG [Y61 H54 K]
8,0.000292 s⁻¹,FISYDGSNKYYADSVKG [Y61 H52 S]
9,0.00044 s⁻¹,FIRYVGSNKYYADSVKG [Y61 H53 V]
10,0.000262 s⁻¹,FIKYDGSNKYYADSVKG [Y61 H52 K]
11,0.000351 s⁻¹,FIRYDESNKYYADSVKG [Y61 H54 E]
12,0.000646 s⁻¹,FIRYDYSNKYYADSVKG [Y61 H54 Y]
13,0.000321 s⁻¹,FIGYDGSNKYYADSVKG [Y61 H52 G]
14,0.000298 s⁻¹,FIYYDGSNKYYADSVKG [Y61 H52 Y]
15,0.000399 s⁻¹,FIRYEGSNKYYADSVKG [Y61 H53 E]
16,0.000171 s⁻¹,FIAYDGSNKYYADSVKG [Y61 H52 A]
17,0.000373 s⁻¹,FIRYDSSNKYYADSVKG [Y61 H54 S]
18,0.000455 s⁻¹,FIRYDDSNKYYADSVKG [Y61 H54 D]
19,0.000727 s⁻¹,FIRYNGSNKYYADSVKG [Y61 H53 N]
20,0.000351 s⁻¹,FIWYDGSNKYYADSVKG [Y61 H52 W]
21,0.000368 s⁻¹,FIRYSGSNKYYADSVKG [Y61 H53 S]
22,0.000317 s⁻¹,FIVYDGSNKYYADSVKG [Y61 H52 V]

row,koff,Binder
1,0.000374 s⁻¹,FITYDGSNKYYADSVKG [Y61 H52 T]
2,0.000644 s⁻¹,FIRYDTSNKYYADSVKG [Y61 H54 T]
3,0.000316 s⁻¹,FIRYDQSNKYYADSVKG [Y61 H54 Q]
4,0.00042 s⁻¹,QIRYDGSNKYYADSVKG [Y61 H50 Q]
5,0.000792 s⁻¹,FIRYQGSNKYYADSVKG [Y61 H53 Q]
6,0.000407 s⁻¹,FIHYDGSNKYYADSVKG [Y61 H52 H]
7,0.00044 s⁻¹,LIRYDGSNKYYADSVKG [Y61 H50 L]
8,0.00158 s⁻¹,FIRYKGSNKYYADSVKG [Y61 H53 K]
9,0.00169 s⁻¹,FIRYFGSNKYYADSVKG [Y61 H53 F]
10,0.0005 s⁻¹,FIRYTGSNKYYADSVKG [Y61 H53 T]
11,0.000309 s⁻¹,HIRYDGSNKYYADSVKG [Y61 H50 H]
12,0.000347 s⁻¹,FILYDGSNKYYADSVKG [Y61 H52 L]
13,0.000404 s⁻¹,FIRYAGSNKYYADSVKG [Y61 H53 A]
14,0.00023 s⁻¹,YIRYDGSNKYYADSVKG [Y61 H50 Y]
15,2.5e-05 s⁻¹,FIRYDRSNKYYADSVKG [Y61 H54 R]
16,0.00167 s⁻¹,FIRYRGSNKYYADSVKG [Y61 H53 R]
17,0.000285 s⁻¹,FIQYDGSNKYYADSVKG [Y61 H52 Q]
18,0.0011 s⁻¹,FIRYLGSNKYYADSVKG [Y61 H53 L]
19,0.000318 s⁻¹,FIEYDGSNKYYADSVKG [Y61 H52 E]
20,0.000944 s⁻¹,FIRYIGSNKYYADSVKG [Y61 H53 I]
21,0.000447 s⁻¹,FIRYDNSNKYYADSVKG [Y61 H54 N]
22,0.000285 s⁻¹,CIRYDGSNKYYADSVKG [Y61 H50 C]
